Results: IntAct's records for PubMed 17024180

B1: Tyrosine-protein kinase JAK2 (Mus musculus), Q62120 (parent)
chain: MGMACLTMTEMEATSTSPVHQNGDIPGSANSVKQIEPVLQVYLYHSLGQAEGEYLKFPSGEYVAEEICVAASKACGITPVYHNMFALMSETERIWYPPNHVFHIDESTRHDILYRIRFYFPHWYCSGSSRTYRYGVSRGAEAPLLDDFVMSYLFAQWRHDFVHGWIKVPVTHETQEECLGMAVLDMMRIAKEKDQTPLAVYNSVSYKTFLPKCVRAKIQDYHILTRKRIRYRFRRFIQQFSQCKATARNLKLKYLINLETLQSAFYTEQFEVKESARGPSGEEIFATIIITGNGGIQWSRGKHKESETLTEQDVQLYCDFPDIIDVSIKQANQECSNESRIVTVHKQDGKVLEIELSSLKEALSFVSLIDGYYRLTADAHHYLCKEVAPPAVLENIHSNCHGPISMDFAISKLKKAGNQTGLYVLRCSPKDFNKYFLTFAVERENVIEYKHCLITKNENGEYNLSGTKRNFSNLKDLLNCYQMETVRSDSIIFQFTKCCPPKPKDKSNLLVFRTNGISDVQISPTLQRHNNVNQMVFHKIRNEDLIFNESLGQGTFTKIFKGVRREVGDYGQLHKTEVLLKVLDKAHRNYSESFFEAASMMSQLSHKHLVLNYGVCVCGEENILVQEFVKFGSLDTYLKKNKNSINILWKLGVAKQLAWAMHFLEEKSLIHGNVCAKNILLIREEDRRTGNPPFIKLSDPGISITVLPKDILQERIPWVPPECIENPKNLNLATDKWSFGTTLWEICSGGDKPLSALDSQRKLQFYEDKHQLPAPKWTELANLINNCMDYEPDFRPAFRAVIRDLNSLFTPDYELLTENDMLPNMRIGALGFSGAFEDRDPTQFEERHLKFLQQLGKGNFGSVEMCRYDPLQDNTGEVVAVKKLQHSTEEHLRDFEREIEILKSLQHDNIVKYKGVCYSAGRRNLRLIMEYLPYGSLRDYLQKHKERIDHKKLLQYTSQICKGMEYLGTKRYIHRDLATRNILVENENRVKIGDFGLTKVLPQDKEYYKVKEPGESPIFWYAPESLTESKFSVASDVWSFGVVLYELFTYIEKSKSPPVEFMRMIGNDKQGQMIVFHLIELLKSNGRLPRPEGCPDEIYVIMTECWNNNVSQRPSFRDLSLRVDQIRDSIAA
partner: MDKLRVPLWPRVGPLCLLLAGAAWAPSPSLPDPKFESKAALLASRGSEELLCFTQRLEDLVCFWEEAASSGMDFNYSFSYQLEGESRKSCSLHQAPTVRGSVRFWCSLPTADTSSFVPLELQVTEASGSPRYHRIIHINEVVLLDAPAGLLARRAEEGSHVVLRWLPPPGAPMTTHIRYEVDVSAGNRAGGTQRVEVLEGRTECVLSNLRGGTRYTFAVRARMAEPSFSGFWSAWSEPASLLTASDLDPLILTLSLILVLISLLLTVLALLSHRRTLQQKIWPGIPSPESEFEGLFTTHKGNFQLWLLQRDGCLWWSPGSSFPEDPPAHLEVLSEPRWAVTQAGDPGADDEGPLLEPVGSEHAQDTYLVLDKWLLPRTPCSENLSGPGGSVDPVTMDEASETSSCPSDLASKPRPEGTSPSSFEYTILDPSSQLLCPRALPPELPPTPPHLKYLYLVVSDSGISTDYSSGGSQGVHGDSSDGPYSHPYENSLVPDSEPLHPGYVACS
B2: Tyrosine-protein kinase JAK2 (Mus musculus), Q62120 (parent)
chain: B1 chain
partner: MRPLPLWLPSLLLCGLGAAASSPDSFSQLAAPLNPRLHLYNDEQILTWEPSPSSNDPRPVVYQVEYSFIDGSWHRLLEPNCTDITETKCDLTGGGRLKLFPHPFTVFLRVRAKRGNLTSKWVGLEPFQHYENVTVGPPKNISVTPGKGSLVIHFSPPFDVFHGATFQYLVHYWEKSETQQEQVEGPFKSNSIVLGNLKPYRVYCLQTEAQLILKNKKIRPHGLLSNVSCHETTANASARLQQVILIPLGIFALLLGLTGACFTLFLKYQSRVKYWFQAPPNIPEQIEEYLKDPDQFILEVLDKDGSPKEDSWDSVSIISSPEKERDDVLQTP

Variants of: B1
Conditions: with epor_mouse Epor

effect of a mutation on the interaction | Variant
decreasing interaction | Y1007F
disrupting interaction | Y119E

Variants of: B2
Conditions: with Ifngr2, Q63953

effect of a mutation on the interaction | Variant
decreasing interaction | Y1007F
decreasing interaction | Y119E
